Measurements: PMC6779467, “Cytoplasmic protein misfolding titrates Hsp70 to activate nuclear Hsf1”

Molecular target: Hsf1-StrepTag II;Ssa1 (Hsp70) (Saccharomyces cerevisiae;Saccharomyces …, UniProt P10961;P10591 1-833;1-642, |)
Experiment: EMSA; 0.25 uM complex, 0.05 uM probe; 10 mM Tris-HCl pH 7.5, 50 mM KCl, 2.5 mM DTT, 0.25% Tween 20, 20 min at 20 C; 6% DNA retardation gel in TBE (modified: 1 mM MgCl2, no DTT listed, 0.7% agarose)
Details: protein: recombinant;recombinant; tags: C-terminal StrepTag II;6xHis-SUMO removed by Ulp1; chain copies: 3;1; blunt

Hsf1-StrepTag II;Ssa1 (Hsp70), sequence (P10961 whole entry, chain 1 of 2): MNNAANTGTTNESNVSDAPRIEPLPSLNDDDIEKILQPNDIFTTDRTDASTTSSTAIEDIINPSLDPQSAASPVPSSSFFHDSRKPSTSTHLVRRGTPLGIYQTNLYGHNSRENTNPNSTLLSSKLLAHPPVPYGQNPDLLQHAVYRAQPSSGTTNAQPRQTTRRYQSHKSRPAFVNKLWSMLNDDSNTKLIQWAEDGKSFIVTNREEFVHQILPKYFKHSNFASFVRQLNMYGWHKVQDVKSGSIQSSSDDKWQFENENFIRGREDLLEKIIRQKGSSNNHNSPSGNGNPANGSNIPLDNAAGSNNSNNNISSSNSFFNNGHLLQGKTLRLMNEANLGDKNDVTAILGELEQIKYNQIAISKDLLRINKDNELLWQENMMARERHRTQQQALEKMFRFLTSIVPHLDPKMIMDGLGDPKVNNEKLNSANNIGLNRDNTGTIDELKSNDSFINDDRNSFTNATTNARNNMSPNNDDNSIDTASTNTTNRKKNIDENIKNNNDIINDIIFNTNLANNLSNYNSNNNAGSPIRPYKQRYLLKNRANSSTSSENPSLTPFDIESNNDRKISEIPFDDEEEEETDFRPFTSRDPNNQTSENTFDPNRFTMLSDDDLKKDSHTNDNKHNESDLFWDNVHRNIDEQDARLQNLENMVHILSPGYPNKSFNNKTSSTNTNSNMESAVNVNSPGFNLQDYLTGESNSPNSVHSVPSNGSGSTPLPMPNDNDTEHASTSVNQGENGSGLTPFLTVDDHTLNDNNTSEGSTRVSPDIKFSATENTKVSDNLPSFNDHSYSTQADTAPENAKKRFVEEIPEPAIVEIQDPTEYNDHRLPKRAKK
Hsf1-StrepTag II;Ssa1 (Hsp70), sequence (P10591 whole entry, chain 2 of 2): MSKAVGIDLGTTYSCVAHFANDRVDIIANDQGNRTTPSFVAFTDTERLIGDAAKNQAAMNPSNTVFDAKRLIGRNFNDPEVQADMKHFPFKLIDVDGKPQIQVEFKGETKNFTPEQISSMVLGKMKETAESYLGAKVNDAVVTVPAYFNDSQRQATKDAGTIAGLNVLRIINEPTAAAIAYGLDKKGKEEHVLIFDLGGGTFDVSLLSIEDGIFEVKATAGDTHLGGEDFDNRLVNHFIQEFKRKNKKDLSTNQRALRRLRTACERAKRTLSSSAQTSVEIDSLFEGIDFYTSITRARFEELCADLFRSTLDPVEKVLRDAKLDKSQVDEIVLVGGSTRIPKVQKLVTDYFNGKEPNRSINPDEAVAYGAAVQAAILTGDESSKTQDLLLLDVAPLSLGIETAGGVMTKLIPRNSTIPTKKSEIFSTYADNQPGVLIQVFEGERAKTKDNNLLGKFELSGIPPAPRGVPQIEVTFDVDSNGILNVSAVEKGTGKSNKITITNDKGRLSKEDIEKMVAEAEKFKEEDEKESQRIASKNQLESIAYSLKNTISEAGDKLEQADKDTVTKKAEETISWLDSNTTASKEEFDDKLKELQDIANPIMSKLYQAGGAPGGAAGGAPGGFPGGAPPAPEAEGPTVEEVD

B1: HSE-DY682 (dsDNA)
DNA 1: TCGATTTTCCAGAACGTTCCATCGGC
DNA 2: GCCGATGGAACGTTCTGGAAAATCGA
binding result: binds
